US20050064556A1

Target: factor Xa
Test: cell-based or functional assay

factor Xa amidolytic assay, 50% inhibitory concentration: 20 ng/mL
Substance: Tissue Factor Pathway Inhibitor (TFPI), yeast-produced, authentic mature 276 amino acid polypeptide (from UniProt P10646 29-304)
